Reference: US20220040297A1 (Chugai, published 2022)

Target: T1, CD3ε homodimer protein (human, UniProt P07766 23-126, limits assumed, sulfo-tag or biotin label in some ECL assays)
T1 construct: also called human CD3ε homodimer protein; CD3 (CD3ε)
Test: SPR, CD3ε homodimer on chip;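 also: biacore SPR with antibody variants flowed as analyte over amine-coupled CD3ε homodimer on a CM chip, bound amount of each single-residue H chain variant over that of parent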

T1 sequence (P07766 23-126 limits assumed): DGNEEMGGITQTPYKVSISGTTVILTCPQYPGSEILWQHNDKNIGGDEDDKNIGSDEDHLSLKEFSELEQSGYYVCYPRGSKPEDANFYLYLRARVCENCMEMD

| Binder | ratio of amounts bound vs CE115HA000 |
| --- | --- |
| CE115HA000 G100bE (antibody, name in Kabat numbering, V domains shown) VH: QVQLVESGGGVVQPGRSLRLSCAASGFTFSNAWMHWVRQAPGKGLEWVAQIKAKSNNYATYYAESVKGRFTISRDDSKNSLYLQMNSLKTEDTAVYYCRYVHYGAYYEVDAWGQGTTVTVSS VL: DIVMTQSPLSLPVTPGEPASISCRSSQSLVHSNRNTYLHWYQQKPGQAPRLLIYKVSNRFSGVPDRFSGSGSGTDFTLKISRVEAEDVGVYYCGQGTQVPYTFGQGTKLEIK | 0.36 |
| CE115HA000 H35F (antibody, name in Kabat numbering, V domains shown) VH: QVQLVESGGGVVQPGRSLRLSCAASGFTFSNAWMFWVRQAPGKGLEWVAQIKAKSNNYATYYAESVKGRFTISRDDSKNSLYLQMNSLKTEDTAVYYCRYVHYGAYYGVDAWGQGTTVTVSS VL: DIVMTQSPLSLPVTPGEPASISCRSSQSLVHSNRNTYLHWYQQKPGQAPRLLIYKVSNRFSGVPDRFSGSGSGTDFTLKISRVEAEDVGVYYCGQGTQVPYTFGQGTKLEIK | 0.21 |
| CE115HA000 G100bY (antibody, name in Kabat numbering, V domains shown) VH: QVQLVESGGGVVQPGRSLRLSCAASGFTFSNAWMHWVRQAPGKGLEWVAQIKAKSNNYATYYAESVKGRFTISRDDSKNSLYLQMNSLKTEDTAVYYCRYVHYGAYYYVDAWGQGTTVTVSS VL: DIVMTQSPLSLPVTPGEPASISCRSSQSLVHSNRNTYLHWYQQKPGQAPRLLIYKVSNRFSGVPDRFSGSGSGTDFTLKISRVEAEDVGVYYCGQGTQVPYTFGQGTKLEIK | 0.23 |
| CE115HA000 H35I (antibody, name in Kabat numbering, V domains shown) VH: QVQLVESGGGVVQPGRSLRLSCAASGFTFSNAWMIWVRQAPGKGLEWVAQIKAKSNNYATYYAESVKGRFTISRDDSKNSLYLQMNSLKTEDTAVYYCRYVHYGAYYGVDAWGQGTTVTVSS VL: DIVMTQSPLSLPVTPGEPASISCRSSQSLVHSNRNTYLHWYQQKPGQAPRLLIYKVSNRFSGVPDRFSGSGSGTDFTLKISRVEAEDVGVYYCGQGTQVPYTFGQGTKLEIK | 0.12 |
| CE115HA000 G100bF (antibody, name in Kabat numbering, V domains shown) VH: QVQLVESGGGVVQPGRSLRLSCAASGFTFSNAWMHWVRQAPGKGLEWVAQIKAKSNNYATYYAESVKGRFTISRDDSKNSLYLQMNSLKTEDTAVYYCRYVHYGAYYFVDAWGQGTTVTVSS VL: DIVMTQSPLSLPVTPGEPASISCRSSQSLVHSNRNTYLHWYQQKPGQAPRLLIYKVSNRFSGVPDRFSGSGSGTDFTLKISRVEAEDVGVYYCGQGTQVPYTFGQGTKLEIK | 0.3 |
| CE115HA000 G100bS (antibody, name in Kabat numbering, V domains shown) VH: QVQLVESGGGVVQPGRSLRLSCAASGFTFSNAWMHWVRQAPGKGLEWVAQIKAKSNNYATYYAESVKGRFTISRDDSKNSLYLQMNSLKTEDTAVYYCRYVHYGAYYSVDAWGQGTTVTVSS VL: DIVMTQSPLSLPVTPGEPASISCRSSQSLVHSNRNTYLHWYQQKPGQAPRLLIYKVSNRFSGVPDRFSGSGSGTDFTLKISRVEAEDVGVYYCGQGTQVPYTFGQGTKLEIK | 0.52 |
| CE115HA000 H35N (antibody, name in Kabat numbering, V domains shown) VH: QVQLVESGGGVVQPGRSLRLSCAASGFTFSNAWMNWVRQAPGKGLEWVAQIKAKSNNYATYYAESVKGRFTISRDDSKNSLYLQMNSLKTEDTAVYYCRYVHYGAYYGVDAWGQGTTVTVSS VL: DIVMTQSPLSLPVTPGEPASISCRSSQSLVHSNRNTYLHWYQQKPGQAPRLLIYKVSNRFSGVPDRFSGSGSGTDFTLKISRVEAEDVGVYYCGQGTQVPYTFGQGTKLEIK | 0.35 |
| CE115HA000 H35G (antibody, name in Kabat numbering, V domains shown) VH: QVQLVESGGGVVQPGRSLRLSCAASGFTFSNAWMGWVRQAPGKGLEWVAQIKAKSNNYATYYAESVKGRFTISRDDSKNSLYLQMNSLKTEDTAVYYCRYVHYGAYYGVDAWGQGTTVTVSS VL: DIVMTQSPLSLPVTPGEPASISCRSSQSLVHSNRNTYLHWYQQKPGQAPRLLIYKVSNRFSGVPDRFSGSGSGTDFTLKISRVEAEDVGVYYCGQGTQVPYTFGQGTKLEIK | 0.22 |
| CE115HA000 H35D (antibody, name in Kabat numbering, V domains shown) VH: QVQLVESGGGVVQPGRSLRLSCAASGFTFSNAWMDWVRQAPGKGLEWVAQIKAKSNNYATYYAESVKGRFTISRDDSKNSLYLQMNSLKTEDTAVYYCRYVHYGAYYGVDAWGQGTTVTVSS VL: DIVMTQSPLSLPVTPGEPASISCRSSQSLVHSNRNTYLHWYQQKPGQAPRLLIYKVSNRFSGVPDRFSGSGSGTDFTLKISRVEAEDVGVYYCGQGTQVPYTFGQGTKLEIK | 0.2 |
| CE115HA000 H35L (antibody, name in Kabat numbering, V domains shown) VH: QVQLVESGGGVVQPGRSLRLSCAASGFTFSNAWMLWVRQAPGKGLEWVAQIKAKSNNYATYYAESVKGRFTISRDDSKNSLYLQMNSLKTEDTAVYYCRYVHYGAYYGVDAWGQGTTVTVSS VL: DIVMTQSPLSLPVTPGEPASISCRSSQSLVHSNRNTYLHWYQQKPGQAPRLLIYKVSNRFSGVPDRFSGSGSGTDFTLKISRVEAEDVGVYYCGQGTQVPYTFGQGTKLEIK | 0.11 |
| CE115HA000 G100bI (antibody, name in Kabat numbering, V domains shown) VH: QVQLVESGGGVVQPGRSLRLSCAASGFTFSNAWMHWVRQAPGKGLEWVAQIKAKSNNYATYYAESVKGRFTISRDDSKNSLYLQMNSLKTEDTAVYYCRYVHYGAYYIVDAWGQGTTVTVSS VL: DIVMTQSPLSLPVTPGEPASISCRSSQSLVHSNRNTYLHWYQQKPGQAPRLLIYKVSNRFSGVPDRFSGSGSGTDFTLKISRVEAEDVGVYYCGQGTQVPYTFGQGTKLEIK | 0.37 |
| CE115HA000 H35M (antibody, name in Kabat numbering, V domains shown) VH: QVQLVESGGGVVQPGRSLRLSCAASGFTFSNAWMMWVRQAPGKGLEWVAQIKAKSNNYATYYAESVKGRFTISRDDSKNSLYLQMNSLKTEDTAVYYCRYVHYGAYYGVDAWGQGTTVTVSS VL: DIVMTQSPLSLPVTPGEPASISCRSSQSLVHSNRNTYLHWYQQKPGQAPRLLIYKVSNRFSGVPDRFSGSGSGTDFTLKISRVEAEDVGVYYCGQGTQVPYTFGQGTKLEIK | 0.29 |
| CE115HA000 H35K (antibody, name in Kabat numbering, V domains shown) VH: QVQLVESGGGVVQPGRSLRLSCAASGFTFSNAWMKWVRQAPGKGLEWVAQIKAKSNNYATYYAESVKGRFTISRDDSKNSLYLQMNSLKTEDTAVYYCRYVHYGAYYGVDAWGQGTTVTVSS VL: DIVMTQSPLSLPVTPGEPASISCRSSQSLVHSNRNTYLHWYQQKPGQAPRLLIYKVSNRFSGVPDRFSGSGSGTDFTLKISRVEAEDVGVYYCGQGTQVPYTFGQGTKLEIK | 0.15 |

Second part, the binder after the results:

| ratio of amounts bound vs CE115HA000 | Binder |
| --- | --- |
| 0.35 | CE115HA000 H96K (antibody, name in Kabat numbering, V domains shown) VH: QVQLVESGGGVVQPGRSLRLSCAASGFTFSNAWMHWVRQAPGKGLEWVAQIKAKSNNYATYYAESVKGRFTISRDDSKNSLYLQMNSLKTEDTAVYYCRYVKYGAYYGVDAWGQGTTVTVSS VL: DIVMTQSPLSLPVTPGEPASISCRSSQSLVHSNRNTYLHWYQQKPGQAPRLLIYKVSNRFSGVPDRFSGSGSGTDFTLKISRVEAEDVGVYYCGQGTQVPYTFGQGTKLEIK |
| 0.14 | CE115HA000 H35R (antibody, name in Kabat numbering, V domains shown) VH: QVQLVESGGGVVQPGRSLRLSCAASGFTFSNAWMRWVRQAPGKGLEWVAQIKAKSNNYATYYAESVKGRFTISRDDSKNSLYLQMNSLKTEDTAVYYCRYVHYGAYYGVDAWGQGTTVTVSS VL: DIVMTQSPLSLPVTPGEPASISCRSSQSLVHSNRNTYLHWYQQKPGQAPRLLIYKVSNRFSGVPDRFSGSGSGTDFTLKISRVEAEDVGVYYCGQGTQVPYTFGQGTKLEIK |
| 0.16 | CE115HA000 H35Y (antibody, name in Kabat numbering, V domains shown) VH: QVQLVESGGGVVQPGRSLRLSCAASGFTFSNAWMYWVRQAPGKGLEWVAQIKAKSNNYATYYAESVKGRFTISRDDSKNSLYLQMNSLKTEDTAVYYCRYVHYGAYYGVDAWGQGTTVTVSS VL: DIVMTQSPLSLPVTPGEPASISCRSSQSLVHSNRNTYLHWYQQKPGQAPRLLIYKVSNRFSGVPDRFSGSGSGTDFTLKISRVEAEDVGVYYCGQGTQVPYTFGQGTKLEIK |
| 0.22 | CE115HA000 H35W (antibody, name in Kabat numbering, V domains shown) VH: QVQLVESGGGVVQPGRSLRLSCAASGFTFSNAWMWWVRQAPGKGLEWVAQIKAKSNNYATYYAESVKGRFTISRDDSKNSLYLQMNSLKTEDTAVYYCRYVHYGAYYGVDAWGQGTTVTVSS VL: DIVMTQSPLSLPVTPGEPASISCRSSQSLVHSNRNTYLHWYQQKPGQAPRLLIYKVSNRFSGVPDRFSGSGSGTDFTLKISRVEAEDVGVYYCGQGTQVPYTFGQGTKLEIK |
| 0.26 | CE115HA000 H35T (antibody, name in Kabat numbering, V domains shown) VH: QVQLVESGGGVVQPGRSLRLSCAASGFTFSNAWMTWVRQAPGKGLEWVAQIKAKSNNYATYYAESVKGRFTISRDDSKNSLYLQMNSLKTEDTAVYYCRYVHYGAYYGVDAWGQGTTVTVSS VL: DIVMTQSPLSLPVTPGEPASISCRSSQSLVHSNRNTYLHWYQQKPGQAPRLLIYKVSNRFSGVPDRFSGSGSGTDFTLKISRVEAEDVGVYYCGQGTQVPYTFGQGTKLEIK |
| 0.13 | CE115HA000 H35Q (antibody, name in Kabat numbering, V domains shown) VH: QVQLVESGGGVVQPGRSLRLSCAASGFTFSNAWMQWVRQAPGKGLEWVAQIKAKSNNYATYYAESVKGRFTISRDDSKNSLYLQMNSLKTEDTAVYYCRYVHYGAYYGVDAWGQGTTVTVSS VL: DIVMTQSPLSLPVTPGEPASISCRSSQSLVHSNRNTYLHWYQQKPGQAPRLLIYKVSNRFSGVPDRFSGSGSGTDFTLKISRVEAEDVGVYYCGQGTQVPYTFGQGTKLEIK |
| 0.22 | CE115HA000 H35V (antibody, name in Kabat numbering, V domains shown) VH: QVQLVESGGGVVQPGRSLRLSCAASGFTFSNAWMVWVRQAPGKGLEWVAQIKAKSNNYATYYAESVKGRFTISRDDSKNSLYLQMNSLKTEDTAVYYCRYVHYGAYYGVDAWGQGTTVTVSS VL: DIVMTQSPLSLPVTPGEPASISCRSSQSLVHSNRNTYLHWYQQKPGQAPRLLIYKVSNRFSGVPDRFSGSGSGTDFTLKISRVEAEDVGVYYCGQGTQVPYTFGQGTKLEIK |
| 0.23 | CE115HA000 H35S (antibody, name in Kabat numbering, V domains shown) VH: QVQLVESGGGVVQPGRSLRLSCAASGFTFSNAWMSWVRQAPGKGLEWVAQIKAKSNNYATYYAESVKGRFTISRDDSKNSLYLQMNSLKTEDTAVYYCRYVHYGAYYGVDAWGQGTTVTVSS VL: DIVMTQSPLSLPVTPGEPASISCRSSQSLVHSNRNTYLHWYQQKPGQAPRLLIYKVSNRFSGVPDRFSGSGSGTDFTLKISRVEAEDVGVYYCGQGTQVPYTFGQGTKLEIK |
